US20050048548A1

Key:
streptavidin (Prozyme) [1] = molecular target: streptavidin (Prozyme) (UniProt P22629); experiment: phage ELISA on plate-coated streptavidin, anti-M13-HRP detection
streptavidin (Prozyme) [2] = molecular target: streptavidin (Prozyme) (UniProt P22629); experiment: phage ELISA on plate-coated streptavidin, both with and without 10 mM DTT; reference: Ser-Ser phage
[3] = molecular target: MBP-BirA fusion (E. coli biotin ligase / biotin holoenzyme synthetase with N-terminal maltose binding protein) (E. coli) [MBP: P0AEX9]; experiment: phage ELISA on plate-coated MBP-BirA, anti-M13-HRP detection; reference: same phage unmodified

Sequence of streptavidin (Prozyme) (P22629 37-163 limits assumed): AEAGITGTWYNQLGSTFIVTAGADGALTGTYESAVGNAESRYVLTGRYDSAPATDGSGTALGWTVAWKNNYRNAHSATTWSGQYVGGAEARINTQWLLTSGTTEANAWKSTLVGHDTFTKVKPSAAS

Row | Substance | fold increase of affinity, biotin-modified against unmodified phage [3] [fold] | further results
1 | M13 phage displaying the disulfide constrained sequence Cys-HPQGPP-Cys (peptide) | – | reduction of binding in 10 mM DTT against no DTT (orders of magnitude) (streptavidin (Prozyme) [1]): > 2
2 | M13 phage displaying the selenosulfide constrained sequence Cys-HPQGPT-Sec (peptide) | – | tighter binding against the linear Ser-Ser sequence (orders of magnitude) (streptavidin (Prozyme) [2]): 2
3 | biotin-modified M13 phage clone displaying CLQPSecYGS (peptide) | 5 | –
4 | biotin-modified M13 phage clone displaying VPKQSecCQN (peptide) | 5 | –
5 | biotin-modified M13 phage clone displaying VTAKSecCYP (peptide) | 5 | –
